For 14 sequences, protein production results are on record in a protein production outcome set (Wang et al. 2014).

The data set can be described thus: label from the status in PepcDB records.
For “MCPEFQRKAAGAPRMGAMLARCVLTAALALQAAAAARAVEIEIGVASRGVVDGLEFVQFSADERTMATTHWGNVVHLWDLKTLRVRSSVSVANRDFDFDLSPDGRALAVWNEEGKGEIELYDTDNGQPARALPAPRLPQGESRRGRSLVYRDDGTLEFVSHGWIGGHARKAYLLAVPAGQPRAAETPLPALVNSVAFRKSAVMDQGRLLLAGVDGADDELAIMDIASGRMLAREPGFRIASYAADARRAVFVEADGKQRILAFDFSSRSLSTLPRWTGSGKFQPYRFVAGTRFLVLAPDEPDASTRRAAPGIYDLQTRRLHRLPPDADPGSIDVWGATASYVLCNPDHTACQAEVADLAISRKLGTFAVQPSADFRTWISPSGSMVVVGGADDGTMMVWSVKEQRVIGPN”, the protein production entry is on record as “failed”.

For “MAIDPNSIGAVTEPMLFEWTDRDTLLYAIGVGAGTGDLAFTTENSHGIDQQVLPTYAVICCPAFGAAAKVGTFNPAALLHGSQGIRLHAPLPAAGKLSVVTEVADIQDKGEGKNAIVVLRGRGCDPESGSLVAETLTTLVLRGQGGFGGARGERPAAPEFPDRHPDARIDMPTREDQALIYRLSGDRNPLHSDPWFATQLAGFPKPILHGLCTYGVAGRALVAELGGGVAANITSIAARFTKPVFPGETLSTVIWRTEPGRAVFRTEVAGSDGAEARVVLDDGAVEYVAG”, the protein production result is listed as “not failed”.

As to “MASDTPGFYMDKLNKYRQMHGVAITYKELSTSGPPHDRRFTFQVLIDEKEFPEAKGRSKQEARNAAAKLAVDILDNENKVDCHT”, the protein production entry is “not failed”.

With “NVYDLANELERAVRALPEYQAVLTAKSAIESDADAQVLWQDFLATQSKVQEMMQSGQMPSQEEQDEMSKLGEKIESNDLLKVYFDQQQRLSVYMSDIEKIVFAPMQDL”, the protein production entry is “not failed”.

Regarding “MDKKEYSETFYHPYKPYDIQVQLMETVYRVLSEGKKIAILESPTGTGKTLSLICATMTWLRMNKADIFTRMETNIKTNEDDSENLSDDEPDWVIDTYRKSVLQEKVDLLNDYEKHLNEINTTSCKQLKTMCDLDKEHGRYKSVDPLRKKRKGARHLDVSLEEQDFIPRPYESDSENNDTSKSTRGGRISDKDYKLSELNSQIITLLDKIDGKVSRDPNNGDRFDVTNQNPVKIYYASRTYSQLGQFTSQLRLPSFPSSFRDKVPDEKVKYLPLASKKQLCINPKVMKWKTLEAINDACADLRHSKEGCIFYQNTNEWRHCPDTLALRDMIFSEIQDIEDLVPLGKSLGICPYYASREALPIAEVVTLPYQYLLSESTRSSLQINLENSIVIIDEAHNLIETINSIYSSQISLEDLKNCHKGIVTYFNKFKSRLNPGNRVNLLKLNSLLMTLIQFIVKNFKKIGQEIDPNDMFTGSNIDTLNIHKLLRYIKVSKIAYKIDTYNQALKEEESSKNENPIKETHKKSVSSQPLLFKVSQFLYCLTNLTSEGQFFFEKNYSIKYMLLEPSKPFESILNQAKCVVLAGGTMEPMSEFLSNLLPEVPSEDITTLSCNHVIPKENLQTYITNQPELEFTFEKRMSPSLVNNHLFQFFVDLSKAVPKKGGIVAFFPSYQYLAHVIQCWKQNDRFATLNNVRKIFYEAKDGDDILSGYSDSVAEGRGSLLLAIVGGKLSEGINFQDDLCRAVVMVGLPFPNIFSGELIVKRKHLAAKIMKSGGTEEEASRATKEFMENICMKAVNQSVGRAIRHANDYANIYLLDVRYNRPNFRKKLSRWVQDSINSEHTTHQVISSTRKFFSMRSLNSR”, the protein production result is “failed”.

With “MFGCPKDLLNGPCGGALDGKCEVNSNLCPWYSLMEKFELLDGAPLLVEHPVVLEMERIFEGEEVEIKRSSFIKNLGRGKAISVEFPIRLFEKGVREFRKVGDLYTIPDNPLGYPHISPTALGTWLKSKGHSVMPHLTAKDRNVIAISSEFRTALEFDFEGILITTGDWSGFILQGKPVFDLDSANMIRLAKLMFSGVLPTGERVEVKERPFIAGTVNPNYPAKLEGKRLARKIIAGADLVISQVVANRKVVREIPKILQEALKYSPHEVPVVVSILYPLKRELEPILRKMGIKTGDDIRAIVEEISSLEFGGINVIVFEETRWEEKLNEVLDLLKELL”, the protein production result was “failed”.

As for “PVLTQTSEQAPSSAPRDVQARMLSSTTILVQWKEPEEPNGQIQGYRVYYTMDPTQHVNNWMKHNVADSQITTIGNLVPQKTYSVKVLAFTSIGDGPLSSDIQVITQTG”, the protein production entry was “not failed”.

On to “MNALVLYFDGKCPFCAAEMRRLSEWDTQHQLAFVDIAQEGFDCSSLNVDLAALNRELHGRTSDGRLLVGIDCMIAAYTLAGHGWLVLPLRVPGLRRVLANLYRAFAGNRYTLSRWLGYGTATACDGDSCGTGNPFLSGKELTDAAEDRPARRDSRQLAVRWMYAAAIAHLLVGAAMPWAADATLFGTYHRIVEQSFWSGAAPAQARAQQVWWIALFGATLQCSAIWMLALVHLGNRTRHRMAWGWLLVGLLVWAPQDLLISLQAHVWPHVLVDAVALLTMIPPLLYLWRKDAA”, for which the protein production result is on record as “failed”.

With “MNDRPNNYILTRESGFKVITELTKGQNCNGAETHPINGELYFNSWNAGQVFRYDFTTQETTPLFTIQDSGWEFHIQFHPSGNYAYIVVVNQHYILRSDYDWKTKRLTTPYIVCGQQGAKDWVDGVGKKARMHAPRQGTFVKNPAYKGSSDEYDFYFCDRENHCIRILTPQGRVTTFAGRGSNGTSGYNDGDLRQEARFNHPEGIVYDEERECFFIGDRENRRIRKIGLEHHHHHH”, the protein production result is given as “not failed”.

In the case of “MEKMYNVGKIVNTHGLIGEIRVIATTDFPEERFQVGNTVYLFEKNSKKPEKLIIRSHRKHKNFDLLMFEGLTGIHQVERMKEGVLKIKEAQLTDLEENEFYFHEIIGTVVTTDGEELGEITEILTPGANDVWVVKGADKKEKLIPYIADVVKDINTNDKKITIEVMEGLLDLEHHHHHH”, the protein production result was “failed”.

Turning to “MDKPILKDSMKLFEALGTIKSRSMFGGFGLFADETMFALVVNNQLHIRADQQTSSDFETQGLKPYVYKKRGFPVVTKYYAISSELWESSDRLIEVAKKSLENAKLEKEQQASTKPNRLKDLPNLRLATERMLKKAGIDSVAQLEEEGALSAYKAIRDTHSTTVSLELLWALEGAINGTHWSVVPQSRREELMNGLS”, the protein production entry is reported as “not failed”.

As to “MCYTGDMEDVKHPRLTRRGRIYWFRAKVPADLRSHYAPKTEIIYSLKTSDPREALVRVRIASVKADQEFEVARRIPKEEVRTSLSDDEAERLVAIYYQVRLEEDEEIRIGGKQEADLYLGVKAQLEALGIGHANYTNEEAVAEYGLSQREYQKNQETLEFMEPLYREALSTGNTEIIHDELDDILEANSIKLDRTSSQYRKLAFSILKATVKVLDVEKRRNSGEPIDTPPEPPPLFKPAVTAVPANSLRLSEVFERWKVERKPAKRSLMEWDTAIRRFTALYGDKPVESITKAEVVEFKDSLLQQGKAAATVLKQVGAIKSTLQYAVDNGKLSVNPATGVKVAGKRASEVRRLPYDAEDLKAIFSSPVFTCGDRPLAGSGEASFWLPLLALFTGARLNEIGQILVSDVRELDGIHYLDLNTEGEGKSLKNEGSRRKVPLHPEIIRLGFLDYVRKQGESLGSDSRVFDKLEPNSNGVLTANFSKWWGRYARENGIAKGQKVFHSFRHSFKDACRESSLPQDIHDALTGHSPNNVGGRYGQGFTVRRLGEEMAKLSYPGLDLSGLMKP”, the protein production result is given as “failed”.

On to “MDLDNLFKTTSSSKDKKNNTIDLVVSDDMAFLQAIDELYAIEGFASPLKVDDIDDESWHKTSAEIKHVVLDLRDCGELVSEVAEISSRLDVSISLIVLSNTDSILMRDKVLSLGANYILWDPELDGLLGALKESGKDTFSPTVKKKSRIAKRVLMLGSKGGVGVSTISAFLSHSLSQQASLKTLLVEHDTLALNSDIFLGLKGLKAQQNSIDLNQSELDAAIAGSYVHPIKDKLDFLALEKNIACISDHADSLFRISNELVDQYNFIIDSLPLNAINELTSEDINERYNRIFVVCEPSVASLRAYHSIKKKLGKAEHRIIFSMTRSQKDYMMPLQGAKEKIKAKDTIDFVYEANLEKLIIQQGIHNTAKIKFTPAIANMVNSLTGKKVKVQKKFAWFKK”, for which the protein production entry is given as “failed”.

Take “MGRKDSLDLEEEAASGASSALEAGGSSGLEDVLPLLQQADELHRGDEQGKREGFQLLLNNKLVYGSRQDFLWRLARAYSDMCELTEEVSEKKSYALDGKEEAEAALEKGDESADCHLWYAVLCGQLAEHESIQRRIQSGFSFKEHVDKAIALQPENPMAHFLLGRWCYQVSHLSWLEKKTATALLESPLSATVEDALQSFLKAEELQPGFSKAGRVYISKCYRELGKNSEARWWMKLALELPDVTK”: the protein production result is “failed”.
